This passage reports expression_or_secretion results from PMC5501590.

The nature of data set [1]: Myc immunoblot of HEK293 medium, with/without Ni-NTA enrichment. The note with it: glycan lost; control: wild type. (In general: A western blot detects proteins with antibodies after separation by electrophoresis.)
Data set [2] is described as follows: Myc immunoblot of HEK293 whole cell lysates. The note with it: glycan lost; control: wild type.

B1: rat IGSF1-2 (IGSF1 isoform 2): N44Q (protein)
parent chain: MMLRTFTLLLLCIWLNRGMTSMAAVESQPELWIESNYPQAPWENITLWCKSPSRVSSKFLLLKDNTQMTWIHPPYKTFQVSFFIGALTESNTGLYRCCYWNEKGWSKPSKILELEAPGQLPKPIFWIQAETPPFPGCNVNILCHGWLQDLVFMLFKEGYTEPIDYQVPTGTMAIFSIDNLAPENEGIYICRTHIQMLPTLWSEPSNPLKLVVAGGCAHGCWHLTIVIPGIMAG
With B1, the expression_or_secretion entry in data set [1] and in data set [2] was “no change” throughout.

B2: murine IGSF1-2 (IGSF1 isoform 2): N43Q (protein)
parent chain: MMLRTFTLLLLCIWLNPGMTSLAVESQPELWIESNYPQAPWENITLWCKSPSRVSSKFLLLKDNSQMTWIRPPYKTFQVSFFIGALTESNTGLYRCCYWKEKGWSKPSKILELEAPGQLPKPIFWIQAETPPLPGCNVNIFCHGWLQDLVFMLFKEGYTEPVDYQVPTGTMAIFSIDNLAPENEGVYICRTHIQMLPTLWSEPSNPLKLVVAGGCGHGCWHLTIVIPGIMAG
In the case of B2, the expression_or_secretion entry in data set [1] and in data set [2] was “no change” throughout.
